IntAct's records for PubMed 18775314

B1: Arf-GAP domain and FG repeat-containing protein 1 (Homo sapiens), P52594 (parent)
chain: MAASAKRKQEEKHLKMLRDMTGLPHNRKCFDCDQRGPTYVNMTVGSFVCTSCSGSLRGLNPPHRVKSISMTTFTQQEIEFLQKHGNEVCKQIWLGLFDDRSSAIPDFRDPQKVKEFLQEKYEKKRWYVPPEQAKVVASVHASISGSSASSTSSTPEVKPLKSLLGDSAPTLHLNKGTPSQSPVVGRSQGQQQEKKQFDLLSDLGSDIFAAPAPQSTATANFANFAHFNSHAAQNSANADFANFDAFGQSSGSSNFGGFPTASHSPFQPQTTGGSAASVNANFAHFDNFPKSSSADFGTFNTSQSHQTASAVSKVSTNKAGLQTADKYAALANLDNIFSAGQGGDQGSGFGTTGKAPVGSVVSVPSQSSASSDKYAALAELDSVFSSAATSSNAYTSTSNASSNVFGTVPVVASAQTQPASSSVPAPFGATPSTNPFVAAAGPSVASSTNPFQTNARGATAATFGTASMSMPTGFGTPAPYSLPTSFSGSFQQPAFPAQAAFPQQTAFSQQPNGAGFAAFGQTKPVVTPFGQVAAAGVSSNPFMTGAPTGQFPTGSSSTNPFL
B2: Vesicle-associated membrane protein 7 (Homo sapiens), P51809 (parent)
chain: MAILFAVVARGTTILAKHAWCGGNFLEVTEQILAKIPSENNKLTYSHGNYLFHYICQDRIVYLCITDDDFERSRAFNFLNEIKKRFQTTYGSRAQTALPYAMNSEFSSVLAAQLKHHSENKGLDKVMETQAQVDELKGIMVRNIDLVAQRGERLELLIDKTENLVDSSVTFKTTSRNLARAMCMKNLKLTIIIIIVSIVFIYIIVSPLCGGFTWPSCVKK
partner: B1 chain

Variants of: B1
Details: with vamp7_human VAMP7, P51809

| Variant | effect of a mutation on the interaction |
| --- | --- |
| L163S;L164S | decreasing interaction |
| L160S;L163S | decreasing interaction |
| L171S;L173S | decreasing interaction |

Variants of: B1
Details: with vamp7_human VAMP7, P51809
Remark: another data set of the same source

| Variant | effect of a mutation on the interaction |
| --- | --- |
| L163S;L164S | decreasing interaction |

Variants of: B2
Details: with agfg1_human AGFG1, P52594

| Variant | effect of a mutation on the interaction |
| --- | --- |
| L43S;Y45S | decreasing interaction |

Variants of: B2
Details: with agfg1_human AGFG1, P52594
Remark: another data set of the same source

| Variant | effect of a mutation on the interaction |
| --- | --- |
| L43S;Y45S | decreasing interaction |
